In test [1] the target is T1, rat Eag1 (rat brain sections, hippocampus and cerebellum) (rat, UniProt Q63472 1-962).
T1 construct: whole, on cells; Native protein in fixed tissue sections (immunohistochemistry)
T1 sequence (looked up): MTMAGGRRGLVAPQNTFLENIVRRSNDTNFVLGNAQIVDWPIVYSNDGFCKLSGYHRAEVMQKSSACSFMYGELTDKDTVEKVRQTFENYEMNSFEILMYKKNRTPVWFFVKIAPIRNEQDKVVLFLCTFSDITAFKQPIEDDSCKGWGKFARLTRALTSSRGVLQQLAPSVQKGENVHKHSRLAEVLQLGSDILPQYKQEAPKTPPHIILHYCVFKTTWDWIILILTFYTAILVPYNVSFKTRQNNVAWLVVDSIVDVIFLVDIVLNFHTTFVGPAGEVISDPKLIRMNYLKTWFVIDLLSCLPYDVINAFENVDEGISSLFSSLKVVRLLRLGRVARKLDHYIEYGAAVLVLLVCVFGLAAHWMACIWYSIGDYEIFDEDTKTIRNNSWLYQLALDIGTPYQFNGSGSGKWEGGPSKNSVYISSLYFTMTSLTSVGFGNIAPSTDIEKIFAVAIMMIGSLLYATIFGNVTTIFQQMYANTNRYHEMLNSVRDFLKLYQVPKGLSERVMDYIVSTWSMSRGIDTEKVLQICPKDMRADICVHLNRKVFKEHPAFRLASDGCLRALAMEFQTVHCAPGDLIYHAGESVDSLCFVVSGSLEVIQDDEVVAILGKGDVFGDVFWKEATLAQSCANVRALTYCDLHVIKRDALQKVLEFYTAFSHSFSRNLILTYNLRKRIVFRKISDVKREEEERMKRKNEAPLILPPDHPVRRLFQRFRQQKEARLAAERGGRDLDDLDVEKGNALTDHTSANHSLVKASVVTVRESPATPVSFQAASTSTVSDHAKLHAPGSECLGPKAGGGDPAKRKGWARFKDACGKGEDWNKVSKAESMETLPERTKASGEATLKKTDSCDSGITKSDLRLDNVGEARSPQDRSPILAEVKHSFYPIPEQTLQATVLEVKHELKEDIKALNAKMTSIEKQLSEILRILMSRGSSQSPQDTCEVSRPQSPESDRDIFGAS
Nature of the test: immunohistochemistry on rat brain sections (hippocampus, cerebellum).

For test [2], the target named is T2, SPOT peptide 5, SGMGDYEIFDEDT (also: covalently bound to a cellulose SPOT membrane).
T2 construct: also called spot 5
T2 peptide: SGMGDYEIFDEDT
Nature of the test: SPOT peptide membrane, ECL.

Test [3] concerns the target T3, SPOT peptide 4, HSSGMGDYEIFDE (also: covalently bound to cellulose SPOT membrane).
T3 construct: also called spot 4
T3 peptide: HSSGMGDYEIFDE
As to the kind of experiment: SPOT peptide membrane, ECL.

The target of test [4] is T4, SPOT peptide 6, MGDYEIFDEDTKT (also: covalently bound to a cellulose SPOT membrane).
T4 construct: also called spot 6
T4 peptide: MGDYEIFDEDTKT
Nature of the test: SPOT peptide membrane, ECL.

The target of test [5] is T5, SPOT peptide 7, DYEIFDEDTKTIR (also: covalently bound to a cellulose SPOT membrane).
T5 construct: also called spot 7
T5 peptide: DYEIFDEDTKTIR
As to the kind of experiment: SPOT peptide membrane, ECL.

For test [6], the target named is T6, SPOT peptide 8, EIFDEDTKTIRNN
T6 construct: also called spot 8
T6 peptide: EIFDEDTKTIRNN
As to the kind of experiment: SPOT peptide membrane, ECL.

Test [7] deals with T7, SPOT peptide 3, HHHSSGMGDYEIF (also: covalently bound to cellulose SPOT membrane).
T7 construct: holds residues of the immunogen's His tag; also called spot 3
T7 peptide: HHHSSGMGDYEIF
As to the kind of experiment: SPOT peptide membrane, ECL.

Test [8] concerns the target T8, SPOT peptide 22, FNGSGSGKWEGGP
T8 construct: also called spot 22
T8 peptide: FNGSGSGKWEGGP
As to the kind of experiment: SPOT peptide membrane, ECL.

Test [9] addresses T9, SPOT peptide 21, YQFNGSGSGKWEG
T9 construct: also called spot 21
T9 peptide: YQFNGSGSGKWEG
Nature of the test: SPOT peptide membrane, ECL.

For test [10], the target named is T10, SPOT peptide 24, GSGKWEGGPSKNS
T10 construct: also called spot 24
T10 peptide: GSGKWEGGPSKNS
Nature of the test: SPOT peptide membrane, ECL.

Test [11] has as its target T11, SPOT peptide 23, GSGSGKWEGGPSK
T11 construct: also called spot 23
T11 peptide: GSGSGKWEGGPSK
As to the kind of experiment: SPOT peptide membrane, ECL.

The target in test [12] is Eag1 ion channel expressed in cells (Eag1 overexpressing CHO K1 cells; Eag1-expressing oocytes; transfected HEK293 cells) (UniProt O95259). Nature of the test: cell-based or functional assay.

Where no end group is shown, it is not given here.

B1: mouse monoclonal anti-Eag1 antibody ImAb4 (antibody, mouse IgG2b, kappa, V domains shown)
VH: DVQLQESGPGLVKPSQSLSLTCTVTGYSITSDYAWNWIRQFPGNKLEWMGYISYSGSTIYNPSLKSRISITRDTSKNQFFLQLNSVTTEDTATYYCARFGNYGNTLNYWGQGTSVTVSS
VL: DVVMTQTPLSLPVSLGDQASISCRSSQSLVHSNGNTYLHWYLQKPGQSPKLLIYKVSNRFSGVPDRFSGSGSGTDFTLKISRVEAEDLGVYFCSQSTHVPPTFGGGTKLEIKR
notes: Murine IgG2b / kappa
For B1, the binding result in test [1], in test [2], in test [3], in [4], in [5] and in test [6] was “binds” each time. Also, in test [7], the binding result was “binds”.

B2: mouse monoclonal anti-Eag1 antibody ImAb3 (antibody, mouse IgG2b, kappa, V domains shown)
VH: EVKLVESGGGLVQPGGSLRLSCATSGFTFTDYYMSWVRQPPGKALEWLGFIRNKATGYTTEYSASVKGRFTISRDNSQSILYLQMNTLRAEDSATYYCARDFGSRWYFDVWGAGTTVTVSS
VL: DIVMSQSPSSLAVSAGEKVTMSCKSSQSLLNSRTRKNYLAWYQQKPGQSPKLLIYWASTRESGVPDRFTGSGSGTDFTLTISSVQAEDLAVYYCKQSYDLRTFGGGTKLEIKR
notes: Murine IgG2b / kappa
Turning to B2, the binding result in test [8], in test [9], in test [10] and in test [11] was “binds” throughout. Moreover, the current inhibition, whole cell patch clamp on transfected HEK293 cells, 300 nM antibody in test [12] came out at 35%.
